Data on three molecules can be found in patent US20220119534A1 (DRAGONFLY THERAPEUTICS, published 2022).

The target of assay [1] is T1, Human CD16a V158 (FcγRIIIa V158) (human, UniProt P08637 17-208, biotinylated (site not stated)).
T1 construct: V158 is the allele name in mature numbering; also called hCD16aV; hCD16a V158
The experiment in a line: SPR; biotinylated CD16a V158 captured on SA chip, TriNKET as analyte; 1:1 kinetic fit; after 4 wks 40 C in CST pH 7.0, n=3. On the technique in general: In SPR one partner is held on a chip, and binding of the other changes the refractive index at the surface.

Assay [2] deals with T2, mFc-hNKG2D (human, UniProt P26718 73-216).
T2 construct: extracellular domain; Made in house (Dragonfly Tx); the order of tag and ECD follows the name mFc-hNKG2D; also called mFc-tagged human NKG2D; not shown: mouse Fc tag
T2 sequence (looked up): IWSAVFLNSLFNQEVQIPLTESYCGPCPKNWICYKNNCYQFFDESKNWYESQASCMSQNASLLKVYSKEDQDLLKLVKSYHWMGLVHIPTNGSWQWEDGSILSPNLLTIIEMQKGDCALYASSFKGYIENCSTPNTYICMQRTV
The assay is described as follows: SPR Biacore 8K 37 C; mFc-hNKG2D captured on anti-mFc chip, TriNKET as analyte; steady state affinity fit.

Assay [3] concerns the target T3, human CLEC12A on cells (HL60, PL21, Ba/F3-hCLEC12A) (human, UniProt Q5QGZ9 1-265).
T3 construct: Endogenous on the AML lines HL60 and PL21; brought into mouse Ba/F3 cells by retroviral transduction; The cell line stands under assay; also called CLL-1
T3 sequence: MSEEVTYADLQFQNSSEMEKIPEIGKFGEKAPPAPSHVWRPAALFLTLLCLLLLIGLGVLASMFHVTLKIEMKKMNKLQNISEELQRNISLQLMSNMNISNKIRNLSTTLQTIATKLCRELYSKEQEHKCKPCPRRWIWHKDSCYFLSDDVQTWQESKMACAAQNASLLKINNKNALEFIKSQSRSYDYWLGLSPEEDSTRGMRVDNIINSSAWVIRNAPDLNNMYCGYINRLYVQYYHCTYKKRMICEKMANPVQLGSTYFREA
The assay is described as follows: flow cytometry, HL60 cells.

Assay [4] has as its target T4, De-glycosylated CLEC12A (human, UniProt Q5QGZ9 65-265, treated with PNGase F (N-linked glycans removed)).
T4 construct: Recombinant human CLEC12A after PNGase F; also called de-glycosylated hCLEC12A
T4 sequence: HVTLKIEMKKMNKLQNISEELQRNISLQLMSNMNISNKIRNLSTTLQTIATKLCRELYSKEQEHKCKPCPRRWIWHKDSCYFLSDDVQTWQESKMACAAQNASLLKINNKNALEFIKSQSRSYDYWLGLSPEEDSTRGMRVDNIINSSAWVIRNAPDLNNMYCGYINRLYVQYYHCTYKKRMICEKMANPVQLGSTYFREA
The experiment in a line: SPR, de-glycosylated CLEC12A; average of 3 replicates.

The target of assay [5] is T5, Human CD64 (human, UniProt P12314 16-288, biotinylated).
T5 construct: Bought recombinant receptor; also called hFcγRI; Human CD64 (FcγRI)
The assay is described as follows: SPR, human CD64 captured.

Assay [6] deals with T6, recombinant human CD16a F158 (human, UniProt P08637 17-208).
T6 construct: also called FcγRIIIa F158
The assay is described as follows: SPR 25C.

In assay [7] the target is T7, recombinant human CD16a V158 (human, UniProt P08637 17-208, biotinylated).
T7 construct: also called FcγRIIIa V158; hCD16aV
The experiment in a line: SPR 25C.

The target of assay [8] is T8, recombinant human CLEC12A-His (human, UniProt Q5QGZ9 65-265).
T8 construct: also called hCLEC12A-His; hCLEC12A
T8 sequence: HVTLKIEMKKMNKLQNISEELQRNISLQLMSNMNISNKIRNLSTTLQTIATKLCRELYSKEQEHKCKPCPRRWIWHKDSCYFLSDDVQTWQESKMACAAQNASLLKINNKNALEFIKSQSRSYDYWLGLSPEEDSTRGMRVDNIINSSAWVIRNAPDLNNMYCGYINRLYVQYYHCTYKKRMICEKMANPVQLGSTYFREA
The experiment in a line: SPR.

Assay [9] addresses T9, recombinant human CD32a H131 (human, UniProt P12318 36-218, limits assumed, biotinylated).
T9 construct: also called FcγRIIa H131
T9 sequence (looked up): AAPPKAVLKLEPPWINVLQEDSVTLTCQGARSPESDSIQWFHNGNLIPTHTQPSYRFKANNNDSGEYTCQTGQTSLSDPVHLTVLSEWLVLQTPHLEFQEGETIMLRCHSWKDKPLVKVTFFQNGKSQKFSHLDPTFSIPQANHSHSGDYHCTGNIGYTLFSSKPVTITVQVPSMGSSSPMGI
The experiment in a line: SPR 25C, steady state, average.

Assay [10] deals with T10, recombinant cynomolgus FcRn (cynomolgus monkey, UniProt Q8SPV9 24-297; Q8SPW0 21-119).
T10 construct: also called cFcRn; cyno FcRn
The experiment in a line: SPR 25C, pH 6.0, steady state; pH 6.0; second replicate.

“And” between values parts separate entries of the source, which are not always exact repeats. Equal values may be shown once.

T5 sequence (P12314 16-288 limits assumed): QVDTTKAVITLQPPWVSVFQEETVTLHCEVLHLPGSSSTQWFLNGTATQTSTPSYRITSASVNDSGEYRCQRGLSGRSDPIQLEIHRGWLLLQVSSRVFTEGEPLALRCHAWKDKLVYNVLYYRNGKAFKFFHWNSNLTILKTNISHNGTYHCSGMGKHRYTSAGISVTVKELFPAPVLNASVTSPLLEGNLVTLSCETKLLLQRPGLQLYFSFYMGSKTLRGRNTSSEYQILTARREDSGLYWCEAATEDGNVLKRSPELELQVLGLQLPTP
T1 sequence (P08637 17-208 F176V limits assumed): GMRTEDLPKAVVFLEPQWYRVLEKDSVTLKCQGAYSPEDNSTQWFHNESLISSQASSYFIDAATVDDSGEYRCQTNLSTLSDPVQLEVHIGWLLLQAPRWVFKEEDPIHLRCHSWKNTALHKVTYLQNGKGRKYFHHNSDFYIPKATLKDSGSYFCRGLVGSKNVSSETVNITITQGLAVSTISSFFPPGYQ
T6 sequence (P08637 17-208 limits assumed): as the sequence (P08637 17-208 F176V limits assumed) above, with V160F counted along it
T7 sequence (P08637 17-208 F176V limits assumed): as the sequence (P08637 17-208 F176V limits assumed) above
T10 sequence (Q8SPV9 24-297 limits assumed, chain 1 of 2): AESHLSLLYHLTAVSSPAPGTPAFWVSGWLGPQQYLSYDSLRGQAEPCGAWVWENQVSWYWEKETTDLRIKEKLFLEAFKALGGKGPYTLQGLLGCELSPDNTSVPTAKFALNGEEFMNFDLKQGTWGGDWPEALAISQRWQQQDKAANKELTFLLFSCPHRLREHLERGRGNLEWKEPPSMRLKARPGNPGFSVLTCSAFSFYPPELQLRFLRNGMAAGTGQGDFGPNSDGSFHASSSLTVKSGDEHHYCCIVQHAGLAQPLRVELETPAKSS
T10 sequence (Q8SPW0 21-119 limits assumed, chain 2 of 2): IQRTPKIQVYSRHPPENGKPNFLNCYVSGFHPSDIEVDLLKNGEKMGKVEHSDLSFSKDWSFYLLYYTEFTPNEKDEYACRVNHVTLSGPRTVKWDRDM

B1: F3'-1602 TriNKET (bispecific antibody, human IgG1, kappa)
chain: QLQLQESGPGLVKPSETLSLTCTVSGFSLTNYGLHWIRQPPGKCLEWIGVIWSGGKTDYNPSLKSRVTISKDTSKNQFSLKLSSVQAADTAVYYCAKYDYDDSLDYWGQGTLVTVSSGGGGSGGGGSGGGGSGGGGSDIQMTQSPSSLSASVGDRVTITCHASQNINFWLSWYQQKPGKAPKLLIYEASNLHTGVPSRFSGSGSGTRFTLTISSLQPEDIATYYCQQSHSYPLTFGCGTKLEIKGSDKTHTCPPCPAPELLGGPSVFLFPPKPKDTLMISRTPEVTCVVVDVSHEDPEVKFNWYVDGVEVHNAKTKPREEQYNSTYRVVSVLTVLHQDWLNGKEYKCKVSNKALPAPIEKTISKAKGQPREPRVYTLPPCRDELTKNQVSLTCLVKGFYPSDIAVEWESNGQPENNYKTTPPVLVSDGSFTLYSKLTVDKSRWQQGNVFSCSVMHEALHNHYTQKSLSLSPG
heavy: EVQLVESGGGLVKPGGSLRLSCAASGFTFSSYSMNWVRQAPGKGLEWVSSISSSSSYIYYADSVKGRFTISRDNAKNSLYLQMNSLRAEDTAVYYCARGAPIGAAAGWFDPWGQGTLVTVSSASTKGPSVFPLAPSSKSTSGGTAALGCLVKDYFPEPVTVSWNSGALTSGVHTFPAVLQSSGLYSLSSVVTVPSSSLGTQTYICNVNHKPSNTKVDKKVEPKSCDKTHTCPPCPAPELLGGPSVFLFPPKPKDTLMISRTPEVTCVVVDVSHEDPEVKFNWYVDGVEVHNAKTKPREEQYNSTYRVVSVLTVLHQDWLNGKEYKCKVSNKALPAPIEKTISKAKGQPREPQVCTLPPSRDELTENQVSLTCLVKGFYPSDIAVEWESNGQPENNYKTTPPVLDSDGSFFLYSWLTVDKSRWQQGNVFSCSVMHEALHNHYTQKSLSLSPG
light: DIQMTQSPSSVSASVGDRVTITCRASQGISSWLAWYQQKPGKAPKLLIYAASSLQSGVPSRFSGSGSGTDFTLTISSLQPEDFATYYCQQGVSFPRTFGGGTKVEIKRTVAAPSVFIFPPSDEQLKSGTASVVCLLNNFYPREAKVQWKVDNALQSGNSQESVTEQDSKDSTYSLSSTLTLSKADYEKHKVYACEVTHQGLSSPVTKSFNRGEC
notes: Trispecific F3' format: CLEC12A scFv-Fc paired with NKG2D Fab-Fc; Stressed and control samples of the stability studies are the same molecule; also called AB0237
Turning to B1, in [1], binding was put at a Kd of 213 nM; the koff (as a rule, the first-order rate constant of dissociation) was 0.0225 s⁻¹; the kon – broadly, the rate constant with which the complex forms – amounted to 105000 M⁻¹ s⁻¹. The Kd (commonly the concentration at which binding is half-saturated) in assay [2] was 709 nM and 751 nM and 740 nM.

B2: AB0192 TriNKET (other)
chain: EVQLVESGGGVVQPGGSLRLSCAASGFTFNAFGMHWVRQAPGKCLEWVAFISSGSTSIYYANTVKGRFTISRDNSKNTLYLQMNSLRAEDTAVYYCARDGYPTGGAMDYWGQGTSVTVSSGGGGSGGGGSGGGGSGGGGSDIQMTQSPSSLSASVGDRVTITCKASQDIYNYLSWFQQKPGKAPKPLIYRANILVSGVPSRFSGSGSGQDYTFTISSLQPEDIATYYCLQFDAFPFTFGCGTKLEIKGSDKTHTCPPCPAPELLGGPSVFLFPPKPKDTLMISRTPEVTCVVVDVSHEDPEVKFNWYVDGVEVHNAKTKPREEQYNSTYRVVSVLTVLHQDWLNGKEYKCKVSNKALPAPIEKTISKAKGQPREPRVYTLPPCRDELTKNQVSLTCLVKGFYPSDIAVEWESNGQPENNYKTTPPVLVSDGSFTLYSKLTVDKSRWQQGNVFSCSVMHEALHNHYTQKSLSLSPG
heavy: EVQLVESGGGLVKPGGSLRLSCAASGFTFSSYSMNWVRQAPGKGLEWVSSISSSSSYIYYADSVKGRFTISRDNAKNSLYLQMNSLRAEDTAVYYCARGAPIGAAAGWFDPWGQGTLVTVSSASTKGPSVFPLAPSSKSTSGGTAALGCLVKDYFPEPVTVSWNSGALTSGVHTFPAVLQSSGLYSLSSVVTVPSSSLGTQTYICNVNHKPSNTKVDKKVEPKSCDKTHTCPPCPAPELLGGPSVFLFPPKPKDTLMISRTPEVTCVVVDVSHEDPEVKFNWYVDGVEVHNAKTKPREEQYNSTYRVVSVLTVLHQDWLNGKEYKCKVSNKALPAPIEKTISKAKGQPREPQVCTLPPSRDELTENQVSLTCLVKGFYPSDIAVEWESNGQPENNYKTTPPVLDSDGSFFLYSWLTVDKSRWQQGNVFSCSVMHEALHNHYTQKSLSLSPG
light: DIQMTQSPSSVSASVGDRVTITCRASQGISSWLAWYQQKPGKAPKLLIYAASSLQSGVPSRFSGSGSGTDFTLTISSLQPEDFATYYCQQGVSFPRTFGGGTKVEIKRTVAAPSVFIFPPSDEQLKSGTASVVCLLNNFYPREAKVQWKVDNALQSGNSQESVTEQDSKDSTYSLSSTLTLSKADYEKHKVYACEVTHQGLSSPVTKSFNRGEC
notes: the condition stands under assay; also called AB0192 Lot AB0192-005
As to B2, in [3], the EC50 (usually the concentration at which the effect is half-maximal) came out at 0.61 nM and the “FOB (fold over background)” value worked out at 42 fold. In assay [4], this molecule returned a Kd of 0.27 nM, a koff of 0.000348 s⁻¹ and a kon of 1.31e+06 M⁻¹ s⁻¹. In assay [5], the Kd is 6.1 nM and 5.5 nM and 3.5 nM; the koff was 0.00029 s⁻¹ and 0.00026 s⁻¹ and 0.00018 s⁻¹; the kon is 47000 M⁻¹ s⁻¹ and 52000 M⁻¹ s⁻¹.

B3: F3'-1602 TriNKET (other)
chain: QLQLQESGPGLVKPSETLSLTCTVSGFSLTNYGLHWIRQPPGKCLEWIGVIWSGGKTDYNPSLKSRVTISKDTSKNQFSLKLSSVQAADTAVYYCAKYDYDDSLDYWGQGTLVTVSSGGGGSGGGGSGGGGSGGGGSDIQMTQSPSSLSASVGDRVTITCHASQNINFWLSWYQQKPGKAPKLLIYEASNLHTGVPSRFSGSGSGTRFTLTISSLQPEDIATYYCQQSHSYPLTFGCGTKLEIKGSDKTHTCPPCPAPELLGGPSVFLFPPKPKDTLMISRTPEVTCVVVDVSHEDPEVKFNWYVDGVEVHNAKTKPREEQYNSTYRVVSVLTVLHQDWLNGKEYKCKVSNKALPAPIEKTISKAKGQPREPRVYTLPPCRDELTKNQVSLTCLVKGFYPSDIAVEWESNGQPENNYKTTPPVLVSDGSFTLYSKLTVDKSRWQQGNVFSCSVMHEALHNHYTQKSLSLSPG
heavy: EVQLVESGGGLVKPGGSLRLSCAASGFTFSSYSMNWVRQAPGKGLEWVSSISSSSSYIYYADSVKGRFTISRDNAKNSLYLQMNSLRAEDTAVYYCARGAPIGAAAGWFDPWGQGTLVTVSSASTKGPSVFPLAPSSKSTSGGTAALGCLVKDYFPEPVTVSWNSGALTSGVHTFPAVLQSSGLYSLSSVVTVPSSSLGTQTYICNVNHKPSNTKVDKKVEPKSCDKTHTCPPCPAPELLGGPSVFLFPPKPKDTLMISRTPEVTCVVVDVSHEDPEVKFNWYVDGVEVHNAKTKPREEQYNSTYRVVSVLTVLHQDWLNGKEYKCKVSNKALPAPIEKTISKAKGQPREPQVCTLPPSRDELTENQVSLTCLVKGFYPSDIAVEWESNGQPENNYKTTPPVLDSDGSFFLYSWLTVDKSRWQQGNVFSCSVMHEALHNHYTQKSLSLSPG
light: DIQMTQSPSSVSASVGDRVTITCRASQGISSWLAWYQQKPGKAPKLLIYAASSLQSGVPSRFSGSGSGTDFTLTISSLQPEDFATYYCQQGVSFPRTFGGGTKVEIKRTVAAPSVFIFPPSDEQLKSGTASVVCLLNNFYPREAKVQWKVDNALQSGNSQESVTEQDSKDSTYSLSSTLTLSKADYEKHKVYACEVTHQGLSSPVTKSFNRGEC
notes: CLEC12A scFv-Fc, NKG2D A49MI Fab-Fc, human IgG1 Fc; also called AB0237
In the case of B3, the “fold difference in affinity vs trastuzumab” value in assay [6] and in assay [7] was not above 3 fold in each case. In addition, the Kd in [8] stood at 0.6 nM; in assay [9] it was 900 nM; in [10] it was 1100 nM. For the same molecule, the koff in assay [8] was 0.000496 s⁻¹. Also, the kon in [8] was 826000 M⁻¹ s⁻¹.
